According to the DeepSol protein solubility set:

Test: soluble on expression in E. coli; label from the status in PepcDB or PDB records

Sequence: MKARIMYEAYFNLTTKPFELLPNPDFIFPSKSHKRALMYLDYGISERAGFILLTGDIGTGKTTLIRNMIQLKDERTIISRIFNTRVEPEQLLAMICHDFGIPAEGRGKVALLNELNDYLIEQFALGNRPVLIIDEAQNLSADLLEDIRLLSNLETSDTKLLQIVLVGQPELREVLALPQLLQLRQRISINCHISPLSREETEGYIFHRLDRAGNRNAVAFSSDALDIVYRYSRGIPRLVNIICDFILLSAFAEQTTEIPGEMVRDIIGDLDFENHYWGGAEVAASERAPEAARLAPGRSDEATELVATLRAVIDRLESLEGDFARMSRGVLDEMSEKVASLENAFRFHVDETDSHISEIRRRIEKVQNLEVGTTGECQPQDSPKGLLKRMFGALEHHHHHH
- soluble on expression in E. coli: not soluble

Sequence: MGSDKIHHHHHHMDLYQEELIKKISAITPFYIVGGTVRDHLLNRPGKDVDGIIPIPLEELEKHLREWGYHPLKIGAKHQTLSVFQQGQRMDINFFDGDLEADALRRDFTINAVFQDARTGELIDPLQGREDLENKLLRACGNPWERFREDPVRILRMVRFSVQYGMDIEEDTFRSAQSLLPELKHVASERTSEELGRILTLADPAAGIRLLNELGYLTLYLPELVRLQGLAQNRYHTKDAWEHTLQVLANTPPQPILRLAGLFHDLGKWEVASRECYVWGKCWAEDKGYYIGEYRILGRQLHRYHGDYVEVHGTRLDHYPQVIQVKRIRKDPSCRRGFEWVRDGKRHFLGHEKESGRLTRQILARFRLAMVLGKEGEGGEKELLWLIENHMSGTLSFIAELRGEGSALQLNQKVRQFVWEKGWDGRSYRLTRVDQLLELWRADFYGGKKREPKEEQIFEELLEKLHQTNKAVQKRHQELEWGELEKFAQEHKIKGREWGDFKESLRKTRVVSVDWIPLTTGFLEKEYKHFKGRNYAKRERE
- soluble on expression in E. coli: not soluble

Sequence: MGSDKIHHHHHHMNIIPYRVTLLEPLLATRIAGDPNSGVSYPYVPGSLVRGAAVAMYARNKGIVAVDAREEEARRLFFDGRTRYLNAYPADASGRRTLPTPRSLFHVEGEESPIYDFALEVIDAVNEETVQFVGAARDSQPFCRIDDSNIFFISPKRRINVHTQRDRVKGRATEVSGAVFQYDALEEGQTFAGWVLVDKDDDVELLSSLLRHIYRLGGSSNSGYGRVTVAVDAPQNIQVWREIPKQIVPIDAGETFVVTLLSDTLVRDPNTGQYTWDLRPALQQLLSVEIEHIHPIAGEEEQRSVWRLDEVGGFNRAWGLPLPQAQAIAGGSVFVFRARSPIPAQTIAGAEWDGIGERRAEGFGRLAFNWQTETELIRVDPPVVSLIDQLVPNLDGPARNIAQQMAMRMLRRELDAKLRKAINDIRPKHLSISNTQLSRLRIIAREALPNGDLARLQKYLDENIKTRRSVRDQFDRTRLGSEERLSQWLEERLSQPETVWDKIGAQTLSKRIGANVLVSTRDDTELAREYTIRLIDGVLARLAKERRREDGGRQ
- soluble on expression in E. coli: not soluble

Sequence: MNIVVLISGNGSNLQAIIDACKTNKIKGTVRAVFSNKADAFGLERARQAGIATHTLIASAFDSREAYDRALIHEIDMYAPDVVVLAGFMRILSPAFVSHYAGRLLNIHPSLLPKYPGLHTHRQALENGDEEHGTSVHFVTDELDGGPVILQAKVPVFAGDSEDDITARVQTQEHAIYPLVISWFADGRLKMHENAAWLDGQRLPPQGYAADE
- soluble on expression in E. coli: soluble

Sequence: MLEGVIRESITKANAKALKKDGYLIANVYGKGIENVNGAFKLNPFIKYLKEKKHLIFPVKLGDKTFEVVVQEYQKNPVTNELIHVDLLAVTKGVKSKFKVPIKHQGTPVGLKNKGILMLSKKRISVECAPEHLPDHYLVDVAPLDVNESILVRDLEKHENVKILDHDSIAVIGVIKAK
- soluble on expression in E. coli: not soluble

Sequence: MTRDDDDDEDDEEEEDSGAWGRESYAFDGFHPTEEFGFSFSPRGGMRFHGNFGFDDLVRDFNSIFSEMGAWTLPSHSPELPGPESETPGVRLREGQTLRDSMLKYPDSHQPRIFEGVLESHAKPESSKPAPDWGSQGPFHRLDDTWPVSPHSRAREDKDLDSQVSQEGLGPLLQPQPKSYFKSISVTKITKPDGTVEEHRTVVDGEGRRETTVTHQEAHDSSRSDPDPPRSSALDDPFSILDLLLGRWFRSR
- soluble on expression in E. coli: not soluble

Sequence: MEGVKKIKNPSTVKDELLELMFRIYRSTNGKYPALEWVKRKPNPNDFDGFREVYEPFLKFRLSQEFDELYTYQKDNRIIGTIALVYKRIKEKGIWWVPEELMNEKVGLIEFFVVDPEFQGKGIGSTLLEFAVKRLRSLGKDPYVVTFPNLEAYSYYYMKKGFREIMRYKEFVILKFNHKKFQLEHHHHHH
- soluble on expression in E. coli: not soluble

Sequence: MGSDKIHHHHHHMKAIGYQTAGAITAPNALENITLAEPTATGFDLLVEIKAISVNPVDTKIRASSSAPTGEYKIIGWDAVGVVKAVGEKVSLFNVGDEVWYAGDISRSGSYAEYQLVDERIVGHKPKSLTYTQAAALPLTGITAWEILFDRLALPQDGSATDARILIIGAAGGVGSIITQLAVKLTGAEVIGTASRPESAAWVHKLGANAVINHTKPLSKELANIGITDVTHVISLTQTDQHFDEIVQVLKPQGKLALIDDPKGPLDVMKLKRKSLSLHWELMFTRSLYQTEDMIAQHHLLNRLSALIDTGELQSTFGEHYGTINAQNLIKAHAQIESGKAIGKIVLEGFNQ
- soluble on expression in E. coli: not soluble

Sequence: MGSDKIHHHHHHMKHESTKIPLVIFMHIPKTGGITLRNILDQQYRSEHILRLPQKNKLDNLLQKKGANIKKLQCVYGHHRFGVHEYFQQPFTYITMLRHPVERIISTYYFILQNERNRMHQKVKPLTFEQFVQSTDPDLQVPLTNHQTRYLSGERKPNLNKALQHMDTHFSVVGITELYNESLFIMKKKLGWDHISYQKKNVTYYRYRQTDIGLDTIEIIKRKNPLDLHLYETAKEKLQEHIKRLDSGARKELQQFLQDQNGFGPHG
- soluble on expression in E. coli: not soluble

Sequence: MEKNWYVVHTYSGYENKVKANLEKRVESMGMQDKIFRVVVPEEEETDIKNGKKKVVKKKVFPGYVLVEIVMTDDSWYVVRNTPGVTGFVGSAGSGSKPTPLLPGEAETILKRMGMDERKTDIDFELKETVKVIDGPFANFTGSIEEIDYDKSKVKVFVNMFGRETPVELEFTQIDKLLEHHHHHH
- soluble on expression in E. coli: not soluble

Sequence: MGSDKIHHHHHHMAHENVIEMRDITKVFGGFVANDKINLHLRKGEIHALLGENGAGKSTLMNMLAGLLEPTSGEIAVNGQVVNLDSPSKAASLGIGMVHQHFMLVEAFTVAENIILGSELTKNGVLDIAGASKEIKALSERYGLAVDPSAKVADISVGAQQRVEILKTLYRGADILIFDEPTAVLTPSEIDELMAIMKNLVKEGKSIILITHKLDEIRAVSDRVTVIRRGKSIETVEIAGATNADLAEMMVGRSVSFKTEKQASKPKEVVLSIKDLVVNENRGVPAVKNLSLDVRAGEIVGIAGIDGNGQSELIQAITGLRKVESGSIELKGDSIVGLHPRQITELSVGHVPEDRHRDGLILEMMISENIALQTYYKEPHSKNGILNYSNITSYAKKLMEEFDVRAASELVPAAALSGGNQQKAIIAREIDRDPDLLIVSQPTRGLDVGAIEYIHKRLIEERDNGKAVLVVSFELDEILNVSDRIAVIHDGKIQGIVSPETTNKQELGVLMAGGNLGKEKSDV
- soluble on expression in E. coli: not soluble

Sequence: MAHHHHHHMLRWTSRYLCASAAAAAGPEVHRDVEEFAVVIVGGGPSGLSAAIRLKQLAGDQRDSFRVGLVEKGSEIGAHTLSGACVEPHGLDELLPGWREQEGSVLSSMTPVTSDAFHVLIGPSRSVKVPWLPSTLHNRGNYITSLGGICKWLGEQAEALGVEIYPGFAAADVVVDEATGAVTGVQLNDRGVDKSGRRTAQYEPGMIFRAKQTIFAEGCRGSCTKQLEKRFGLRTADNPQTFGLGIKEVWEVPKERHHPGTVMHTVGWPTTDKGHDNTYGGAFLYHYGDGLISCGYVVGLDYSNPYCRPYMEMQKWKTHDLIRGQLEGGRPILYGARTLVEGGFSALPKLHFPGGVLAGDCAGFLNLPKIKGTHTAMKSGMLAAEAVYEDAFKGGKEEAASGVECKSYDDCFRSSWLYKELYTVRNVRQSFYKSFKWGMLYTGITSLLLHGREPWTLKHTTPDNLSLKPAKECVEIKYPKPDGTLTFDLLTNHSRSGTAHNADQPCHLRLKDSKVAEEVNLKAYAGPEARFCPAGVYEFVNDKLVINAQNCLHCKACDIKDPTQNINWTVPEGGGGPNYQAQM
- soluble on expression in E. coli: not soluble

Sequence: MVRLPPPTPPRKPNICGTSGNSNGINENIDTSTFSVSAAKALFESAKRPEVRNAAIAAAKNPFVRQTAKNVAQDEKARGAVLNAVKDPSGGNKISAAFAVADANRKSDSVPPPPPHRGGTSPGKLSGSHSAIRSQLENMHIGGSVMSSNSSTATPSYQSNSTSSYSSSAPVAPPPVPRHTQSIPSYSAPAISTPYGIAKFDYAPTQSDEMGLRIGDTVLISKKVDAEWFYGENQNQRTFGIVPSSYLDIKIPLKEAFTALPPRPAAPSGSSSGTYATAIYDYNSNEAGDLNFAVGSQIMVTARVNEEWLEGECFGRSGIFPSQFVDCPNLYQVPMKQSAPSSAPSYSHPITNNSGPKQTVTVSYDYDSGVASDLRLFEGDVITALEDIDAQWLLAECRGQQGMVPKTFLGPPYGSPKKAPSKGIAEIACAFSPKKAVATGDYHSEDPKHLYVTRGDHLLIVEDVDDYYYKGKLEAFKTLPAGILPKNIVKLEN
- soluble on expression in E. coli: not soluble

Sequence: MSLLRLHDGDLLFVTAARTGLSGAIDDATATQGAPSFDHVGLVAHDGRARVVLHADEEGSRQQPLADFIRQARAKQRQIFVYRLNAAQRAAIPDAIAQARRMLGKPYNLTYVQDDNSYYCSDFIERAFRAHQVFALQPMNFKNPQSGQMSAYWTEFYRSKGMDVPQGLPGTNPNDMARAPALQALGPLDEGHHHHHH
- soluble on expression in E. coli: soluble

Sequence: MLDRPHHTTADIIARCEALFSDLSFTAAREWKAAEPGRIVVGFLPYYAPRELVHAAGGLPLGIFGGGDQLEVIHGDAYYQSYICRIPRSTIELGVSGRLDFVDGMMFPSICDVIRNLSGMWKLMFPSKGARYIDLPHNFDDDLGGEFYVSELRETCEWLSTLTGKPITSDAIRASIAVFNDNRRLIRALYQLRADEPWNVPSSELYLLLRAGMVIPVEEHNQMLADYLAAVRLQQRPIKDNSRVVICGMFCEQPPLNLIKSIELSGCYIVDDDFILVTRWENSDVALDGDPLSNLASAYLHDSKSTPPKYEPDEAKKGLYLVDSVRKNRAEGVIFAMTSFCDPGLLERPMLQAVLKSHGIPQIAFKYAENSGQMQPIREQAGTFADSIKLWSGA
- soluble on expression in E. coli: not soluble

Sequence: MSMIETWTAVDQYVSDVLIPKDSTLEEVLQVNAAANLPAHDVSPTQGKFLQLLVQIQGARNILEIGTLGGYSTIWLARGLSSGGRVVTLEASEKHADIARSNIERANLNDRVEVRTGLALDSLQQIENEKYEPFDFIFIDADKQNNPAYFEWALKLSRPGTVIIGDNVVREGEVIDNTSNDPRVQGIRRFYELIAAEPRVSATALQTVGSKGYDGFIMAVVKE
- soluble on expression in E. coli: soluble

Sequence: MAHHHHHHMFKTMMFKTMRNYFMLNFKRNYRHYSRKKNINNINRKMNDPYSDLYKMNYYGNNFKRLPNKKTKSNEYELIRTSSNSFTYSSPYPPNINYTLKPYPDSAKEFYYENRKYVMKYKNVEYIPIKRMVCKGMSRRSNWDTYYLRVEK
- soluble on expression in E. coli: not soluble

Sequence: MTYIAPEESAFGVGFFERLEANAKPMSLTRGPDAWDVLESIKRNVSNILNTRIGGAQSAPHLGLVDFNDATLETLDLSVRIKLAIQQCLERYEPRLTRVLVRADQDSFNPLTLRFHITATINSEALHEKVQFSLLLDQSRKYRVF
- soluble on expression in E. coli: not soluble

Sequence: MQEIQLSPADDLQQALNNSQNGDVITLGPGSYFGNFIISNQVTLRSNNKGEAIIDSQGKGHGLWLKNSQITIENLTITNWGHDLTDQNSGIYSHGKIDNNKVPSLTIRNNILIGDGFGIWLNQADKAIISHNRVKGNLTLRSADRGNGIQVANVTNSHVFLNEVSETRDGVYVISSQNNIIEQNTMHHLRYGIHYMYSYDNTVKNNTAYDTRAGYALMSSRRLTITGNKTTNSEDYGFLLNFITQSTFSHNYVKNVWTKPENKVLGRDGKGLFVYNSGYNTVKHNIIDTAEIGIHLTAGSENIKIFGNSFINNPTQVKYVSNKKQEWSKDGRGNYWSNYLGWDMGNDGIGDTIFEPNDGIDKLVWQYPEMKMIMDSPAILILRWVQRQFPVLKPPGVKDSFPLMSAPSLTKNEQAATPLAVTTSTFTKSNSAQSANTTSASLKELEHHHHHH
- soluble on expression in E. coli: not soluble
